In this experiment the target is T1, SARS-CoV-2 spike S1 domain (D614G) (SARS-CoV-2, Wuhan-Hu-1 background with …, UniProt A0A6H1PJZ3, strain).
T1 construct: also called D614G S1 variant; source: bought: Sino Biological
Nature of the experiment: SPR. Conditions: both partners purified.

B1: P4A1 (antibody, V domains shown)
VH: EVQLVESGGGLIQPGGSLRLSCAASGFIVSSNYMSWVRQAPGKGLEWVSIIYSGGSTFYADSVKGRFTISRDNSKNTLYLQMNSLRVEDTAVYYCARDLQELGSLDYWGQGTLVTVSS
VL: DIQMTQSPSSVSASVGDRVTITCRASQGISSWLAWYQQKPGKAPKLLIYAASSLQSGVPSRFSGSGSGTDFTLTISSLQPEDFATYYCQEANSFPYTFGQGTKLEIK
notes: also called P4A1 (IgG1); IgG1 form P4A1
Take B1: the binding result is “binds”.

Values taken from publication PMC8113581 (Nature Communications, 2021).
